Results as given in article PMC11737846.

Target: recombinant hemolysin co-regulated protein 1 variant B (rHcp1^(variant B)) of Burkholderia pseudomallei (Burkholderia pseudomallei (clinical isolate DR0089))
Assay: […]) at 10 mg/ml in PBS pH 7.2; […]

Q: For “recombinant hemolysin co-regulated protein 1 variant B (rHcp1^(variant B)) of Burkholderia pseudomallei (natural protein)”, which stoichiometry N is on record?
A: 6
